The text below walks through data of patent US20100273722.

The data set in a line: sedimentation equilibrium AUC, self-association, 25 C.

On to pancreatic peptide YY (PYY), for which the % monomer at 30 µM turned out to be 94%.
